Experimental data taken from the Human Domainome abundance scans (Beltran et al. 2025).
± gives the uncertainty stated by the source.

B1: POU domain, class 2, transcription factor 1, residues 285 to 354; numbered along this chain, P14859 (parent)
chain: LEELEQFAKTFKQRRIKLGFTQGDVGLAMGKLYGNDFSQTTISRFEALNLSFKNMCKLKPLLEKWLNDAE

Variants of: B1
Assay: abundance fitness (aPCA) (normalised: wild type 0, dead -1); higher = more abundant; growth selection in yeast, the domain comes from the species named
Conditions: Homo sapiens

Variant | abundance fitness
LEELEQFAKTFKQRRIKLGFTQGDVGLAMGKLYGNDFSQTTISRFEALNLSFKNMCKLKPLLEKWLNCAE | -0.106 ± 0.058
LEELEQFAKTFKQRRIKLGFTQGDVGLAMGKLYGNDFSQTTISRFEALNLSFKNMCKLKPLLEKWLNMAE | -0.034 ± 0.022
LEELEQFAKTFKQRRIKLGFTQGDVGLAMGKLYGNDFSQTTISRFEALNLSFKNMCKLKPLLEKWLNFAE | -0.011 ± 0.08
LEELEQFAKTFKQRRIKLGFTQGDVGLAMGKLYGNDFSQTTISRFEALNLSFKNMCKLKPLLEKWLNVAE | -0.047 ± 0.027
LEELEQFAKTFKQRRIKLGFTQGDVGLAMGKLYGNDFSQTTISRFEALNLSFKNMCKLKPLLEKWLNKAE | -0.018 ± 0.016
LEELEQFAKTFKQRRIKLGFTQGDVGLAMGKLYGNDFSQTTISRFEALNLSFKNMCKLKPLLEKWLNAAE | -0.024 ± 0.023
LEELEQFAKTFKQRRIKLGFTQGDVGLAMGKLYGNDFSQTTISRFEALNLSFKNMCKLKPLLEKWLNRAE | -0.022 ± 0.021
LEELEQFAKTFKQRRIKLGFTQGDVGLAMGKLYGNDFSQTTISRFEALNLSFKNMCKLKPLLEKWLNNAE | 0.006 ± 0.024
LEELEQFAKTFKQRRIKLGFTQGDVGLAMGKLYGNDFSQTTISRFEALNLSFKNMCKLKPLLEKWLNHAE | -0.012 ± 0.05
LEELEQFAKTFKQRRIKLGFTQGDVGLAMGKLYGNDFSQTTISRFEALNLSFKNMCKLKPLLEKWLNPAE | -0.419 ± 0.035
LEELEQFAKTFKQRRIKLGFTQGDVGLAMGKLYGNDFSQTTISRFEALNLSFKNMCKLKPLLEKWLNYAE | -0.063 ± 0.033
LEELEQFAKTFKQRRIKLGFTQGDVGLAMGKLYGNDFSQTTISRFEALNLSFKNMCKLKPLLEKWLNTAE | -0.048 ± 0.024
LEELEQFAKTFKQRRIKLGFTQGDVGLAMGKLYGNDFSQTTISRFEALNLSFKNMCKLKPLLEKWLNSAE | 0.026 ± 0.029
LEELEQFAKTFKQRRIKLGFTQGDVGLAMGKLYGNDFSQTTISRFEALNLSFKNMCKLKPLLEKWLNGAE | -0.011 ± 0.019
LEELEQFAKTFKQRRIKLGFTQGDVGLAMGKLYGNDFSQTTISRFEALNLSFKNMCKLKPLLEKWLNWAE | -0.086 ± 0.028
LEELEQFAKTFKQRRIKLGFTQGDVGLAMGKLYGNDFSQTTISRFEALNLSFKNMCKLKPLLEKWLNQAE | 0.001 ± 0.023
LEELEQFAKTFKQRRIKLGFTQGDVGLAMGKLYGNDFSQTTISRFEALNLSFKNMCKLKPLLEKWLNDRE | 0.013 ± 0.022
LEELEQFAKTFKQRRIKLGFTQGDVGLAMGKLYGNDFSQTTISRFEALNLSFKNMCKLKPLLEKWLNDQE | 0.057 ± 0.029
LEELEQFAKTFKQRRIKLGFTQGDVGLAMGKLYGNDFSQTTISRFEALNLSFKNMCKLKPLLEKWLNDIE | -0.027 ± 0.021

Variant | abundance fitness
LEELEQFAKTFKQRRIKLGFTQGDVGLAMGKLYGNDFSQTTISRFEALNLSFKNMCKLKPLLEKWLNDYE | -0.038 ± 0.021
LEELEQFAKTFKQRRIKLGFTQGDVGLAMGKLYGNDFSQTTISRFEALNLSFKNMCKLKPLLEKWLNDME | 0.003 ± 0.02
LEELEQFAKTFKQRRIKLGFTQGDVGLAMGKLYGNDFSQTTISRFEALNLSFKNMCKLKPLLEKWLNDSE | -0.004 ± 0.018
LEELEQFAKTFKQRRIKLGFTQGDVGLAMGKLYGNDFSQTTISRFEALNLSFKNMCKLKPLLEKWLNDEE | 0.016 ± 0.04
LEELEQFAKTFKQRRIKLGFTQGDVGLAMGKLYGNDFSQTTISRFEALNLSFKNMCKLKPLLEKWLNDCE | -0.001 ± 0.022
LEELEQFAKTFKQRRIKLGFTQGDVGLAMGKLYGNDFSQTTISRFEALNLSFKNMCKLKPLLEKWLNDPE | -0.112 ± 0.023
LEELEQFAKTFKQRRIKLGFTQGDVGLAMGKLYGNDFSQTTISRFEALNLSFKNMCKLKPLLEKWLNDVE | 0.014 ± 0.024
LEELEQFAKTFKQRRIKLGFTQGDVGLAMGKLYGNDFSQTTISRFEALNLSFKNMCKLKPLLEKWLNDTE | -0.012 ± 0.019
LEELEQFAKTFKQRRIKLGFTQGDVGLAMGKLYGNDFSQTTISRFEALNLSFKNMCKLKPLLEKWLNDNE | -0.04 ± 0.023
LEELEQFAKTFKQRRIKLGFTQGDVGLAMGKLYGNDFSQTTISRFEALNLSFKNMCKLKPLLEKWLNDLE | -0.064 ± 0.02
LEELEQFAKTFKQRRIKLGFTQGDVGLAMGKLYGNDFSQTTISRFEALNLSFKNMCKLKPLLEKWLNDHE | -0.04 ± 0.028
LEELEQFAKTFKQRRIKLGFTQGDVGLAMGKLYGNDFSQTTISRFEALNLSFKNMCKLKPLLEKWLNDKE | 0.004 ± 0.024
LEELEQFAKTFKQRRIKLGFTQGDVGLAMGKLYGNDFSQTTISRFEALNLSFKNMCKLKPLLEKWLNDWE | -0.078 ± 0.027
LEELEQFAKTFKQRRIKLGFTQGDVGLAMGKLYGNDFSQTTISRFEALNLSFKNMCKLKPLLEKQLNDAE | -0.594 ± 0.046
LEELEQFAKTFKQRRIKLGFTQGDVGLAMGKLYGNDFSQTTISRFEALNLSFKNMCKLKPLLEKTLNDAE | -0.294 ± 0.045
LEELEQFAKTFKQRRIKLGFTQGDVGLAMGKLYGNDFSQTTISRFEALNLSFKNMCKLKPLLEKPLNDAE | -0.693 ± 0.086
LEELEQFAKTFKQRRIKLGFTQGDVGLAMGKLYGNDFSQTTISRFEALNLSFKNMCKLKPLLEKKLNDAE | -0.961 ± 0.11
LEELEQFAKTFKQRRIKLGFTQGDVGLAMGKLYGNDFSQTTISRFEALNLSFKNMCKLKPLLEKVLNDAE | -0.262 ± 0.073
LEELEQFAKTFKQRRIKLGFTQGDVGLAMGKLYGNDFSQTTISRFEALNLSFKNMCKLKPLLEKILNDAE | -0.633 ± 0.44
